Experiment: yeast display, Sf9 membrane polyspecificity reagent, FACS + sequencing; frameworks hold sequencing errors
Procedure, shortened: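 Nanobodies from a synthetic yeast display library (Saccharomyces cerevisiae BJ5465), induced 36–48 hours with galactose, were stained 1 hour at 4 °C with 10% biotinylated, detergent-solubilized Sf9 membrane reagent, enriched on streptavidin microbeads, then FACS-sorted. Anti-HA (expression) and streptavidin (reagent binding) fluorescence set low and high (top ~1%) gates. Polyreactivity labels come from the gate of origin. Genes were colony-PCR amplified, MiSeq 2 × 250 sequenced and filtered by CDR length.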

| Sequence | polyreactivity (PSR sort gate) |
| --- | --- |
| QVQLVESGGRLVQAGGSLRLSCAASGRIIGVNAMGWYRQAPGKERELVATITSGGSTYADSVKGRFTISRDNAKNTVYLQMNSLKPEDTAVYFCNALIYKRVTRYPYVRLMDYWGQGTQVTVSS | high polyreactivity |
| QVQLQESRGGLLQAGGSLCLSCAASGNIIFDGDMRWYRQAPGKEREFVAAINPGGSAYYADSVKGRLPLAAITHTVYLQLNSLNPPDTAVYYCAAKLFDVYGYYYWGQGTHVTVSS | low polyreactivity |
| QVHLVDSGGGLVQEGGSLRLSCAASGFISPKYRMGWYRQAPRKERELVAANTTSDGSTSYADSVKGRFRISRDNAKTTVYLQMISLKPEDSAVYYCAAGYESWRSWVRRYLRMDYWGQGTQVTLSS | high polyreactivity |
| QVQLVESGGGLDQAGGSLRLSCAASGRIFGYYAMGWYRLAPGKERELVAGIRSVGSTNYADSVKGRFTISRDNAKNTVYLQMNSLKPEDTAVNYCASRLWHLSYAGQGGDYWGQGTQVTVSS | low polyreactivity |
| QVQLVESVGGFVQAGGSLRLSCAASGRIFGTYAMGWYRQAPGKERELVAAITRGGTTYYADSVKRRFTISRDNAKNTVYLQMNSLKPEDTAVYDCATGPAIRYDYWGQGTQVTVSS | low polyreactivity |
| QVQLVESGGGLVQARGSLRLSCAASGSIFRSYAMGWYRQAPGKERELVAAITSGGNTYYADSVKGRFTISRDNAKNTVYLQMNSLKPEDTAVYYCAKRRYNYLSDYDYWGQGTQVTVSS | low polyreactivity |
| QVQLVESGGGLVQAGGSLRVSCAASGSTFWSYAMGGYRQAPGKARELVAGITQSGGSTYYADSVKGRFTISRDTAKHTLYLQMNSLQPEDTAVYDCAKDGRVSGDFDYWGQGTQGTVSS | low polyreactivity |
| QVQLVESGGGLVQAGGSLRLSCAASGNIFGVYTMGWYRQAPGKERELVAVITSGGRTYYADSVKGRFTISRDNAKNTVYLQMNSLKPADTAVYYCAADIRYTREEYWGQGPQVTVSS | high polyreactivity |
| QVQLVESGGGLVQAGGSLRLSCAASGSIFYSYAMGWYIQAPGKERELVAVISSGGRTNYADSVKGRFTISRDNAKNTVYLQMNSLKPEDTAVYYCAARNYLYRYARAYDYWGQGTQVTVSS | high polyreactivity |
| QVQLVESGGGLVQAGGSLRLSCAASGRTFYAYVMGWYRQAPGKERELVAAISGGGRTYYADSVKGRFTISRDNAKNTVYLQMNSLKPEDTAVYYCAAVSLWYSAYEYWGQGTQVTVSS | high polyreactivity |
| QVQLVESGGGLVQAGGSLRLSCAASGSTFVIKAMGWYRQAPGKERELVAAITSGGDTNYADSVKGRFTISRDNSKYTVYLQMNSLKPEDTALYYCNARDGGQGNYSARYDYWGHGTQVTVSS | low polyreactivity |
| QVQLVESGGGLVQAGGSLRLSCAASGRTFLYNAMGWYRQAPGKERELVAAISWSGGSTYYADSVKGRFTISRDNAKNTVYLQMIILKPEDTAVYYCAATGRRSGFYYWGQGTQVTVSS | high polyreactivity |
| QVQLVESGGGLVQAGGSLRLSCAASGRIGKYAMGWYRQAPGKERELVAAITSGGSTTYADSVKGRITISRDNAKNTVYLQMNSLNPEDTAVYYCKALRRARYTRKGYEYWGQGTQVTVSS | high polyreactivity |
| QVQIVESGGGLVQAGGSLRLSCAASGSTSVKYAMGWYRQAPGKERELVAAIRKRGDSTYYADSVKGRFTISRDYAKNTVYLQMNSLKPEDTAVYYFAAQYLRGRGYWGQGTQVTLSS | low polyreactivity |
| QVHLVESGGGLVQAGGSLRLSCAASGRTLAPNAMGWYRQAPGKERELVATITRGGTTNYADSVKGRFTISRDNAKNTVYLQMNSLKPEDTAVYYCAAGYPSWYYGYPYDSWGQGTQVTVSS | low polyreactivity |
| QVQLVESGGGLVQAGGSLRLSCAASGFIFAFNAMGWYRQAPGKERELVAAISRSGGSTYADSVKGRFTISRDNEKNTVYLQMNSLKPEDTAVYFCAAYSGVGYLWFDYWGHGTQVTVSS | low polyreactivity |

| Sequence | polyreactivity (PSR sort gate) |
| --- | --- |
| QVQLVESGGGLVQAGGSLRLSCAASGSTFYLYAMGWYRQAPGKERELVAAITYGGGSTYYADSVKGRFTISRDNAKNTVYLQMNSLKPEDTAVYYCAARWLYWPRYTSLVYTHRDSWGQGTQVTVSA | low polyreactivity |
| QVQLVESGGGLVQAGGSLRLSCAASGSILESNVMGWYRQAPGKERELVASISSSGDSTYADSVKGRFTISRDNAKNTVYLQMNSLKPEDTEVYYCAADRWYWTYALYYWGQGTQVTVSS | low polyreactivity |
| QVQLVESAAGLFQAGGRLRLSCAASGRICGFYAKGWYTQAPGKQRDLVAAITVSGSSTRYADSVKGRFTISRDNAKNTVYLQMNSLKPEDTAVYYCAARIRAKYSYGYWGQVTQVTVSS | high polyreactivity |
| QVQLVESGGGLVQAGGSLRLSCAASGIIFYRNTMGWYRQAPGKERELVASISRGGSTYYADSVKGRFTISRDNAKNTVYLPMNTLKPEDTAVYYCSTSGPQDYSRNFDYWGQGTQVTVSS | low polyreactivity |
| QVQLVESGGGLVQAGGSLRLSCAASGIIFDCNAMGCYRQAPGKERELVAANTSSTDSTYYADSVKGRFTISRDNAKNTVYLQMNILKPEDTAVYYCAAAYPSKTFDYWGQGTHVTVSS | low polyreactivity |
| QVQLVESGGGLVQAGGSLRLSCAASGGIFVTYAMGWCRQAPGKERELVAAITSGDSTYYADSVKGRFTISRDNAKNPVYLQMNSLKPEDTAVYYCAVGSTDRVSAQGSYFTYDYWGQGTQVTVSS | low polyreactivity |
| QVQLVESGGGLVQAGGSLRLSCAASGRTFRRYAMGWYRQAPGKEREFVAAIRYSGGITYYADSVKGRFTISRDNAKNTVYLQMNSLKPEDTAVFYCAAYGWGNRWYSRFDYWGQGTQVTVSS | high polyreactivity |
| QVQLVESGGGLVQAGGSLRLSCAATGSTIEANTMGWYRQAPGKERELVASITTSGGSTNYADSVKGRFTISRDNAKNTVYLQMNSLKPEDTAVYYCAVRSTYARWNWRTADSSRDYWGQGTQVTVSS | low polyreactivity |
| QGQLVESGGGLVQAGGSIRLSCAAYGSTFNVNAMGLYRQAPGKERELVAAISRSCVSTYYADSVKWRFTISRDNAKNTVYLQMNSLKPEDTAVYYCNAYPGNWRGYRMDYWGQGNQVTVSS | high polyreactivity |
| QVQHVESGGGLVQAGGSLRLSCAASGFIYSTNAMGWYRQAPGKERELVATIRSGGSTNYADSVKGRFTISRDNAKNTVYLQMNCLQPEDTAVYYCNVDDTSWTTSGGRFGQVESDYWGQGTQVTVSS | low polyreactivity |
| QVQVVESGGGLVQTGGSLRLSCAASGSTFRRYDMGWYRPAPGKEWELVAAISVSGGNTYYADSVKGRFTISRDNAKNTVYLQMNSLKPEDTAVYYCATSRWVDNKYTLRSRYYYWGQGTQVTVSS | high polyreactivity |
| QVQLVESGGGLVQAGGSLRLSSAASGSTFRFNAMGWYRQAPGKERELVATISSGGRTYYADSVKGSFTISRDNAKNTVYLQMNSLKPEDTAVYYCAARTGYFLGRFDYWGQGTQVTVSS | high polyreactivity |
| QVQLVESGGGLVQAGGSLRLSCAASGRIFSSNAMGWYRQAPGKERELVASINRGDRTYYADSVKGRFTISRDNAKNTVYLQMNSLKPEDTAVYYCAAARTYGKKYGYWGQGTQVTVSS | high polyreactivity |
| QVQLVESGGGLVQAGGSLRLSCAASGRTFRANAMGWYRQAPGKERELFAAISKRGGNTYYADSVKGRFTISRDNAKNTVYLQMNSLKPEDTAVYYCADDFICRDYDYWGQGTQVTVSS | high polyreactivity |
| RVQLVESGGGLVQAGGSLRLSCAASGSTFLVYAMGWYRQAPGKERELVAVIRWRDGSTYYADSVKGRFTISRDNAKNTVYLQLNSLKPEDTAVYYCAAVYWGEEYEYWGQGTQVTVSS | low polyreactivity |
| QVQLVESGGGLVQAGGSLRLSCAASGFTFGYNAMGWYRQAPGKERELVAAISSSGGSTYYADSVKGRFTISRDNAKNTVYLQMNSLKPEDTAVYYCAKRTPRKWGQGTQVTVSS | high polyreactivity |

— the nanobody polyreactivity screen of Harvey et al. (2022)
